Series [1] concerns the target IGF-1R (Homo sapiens, UniProt P08069). Briefly: IGF-1 receptor binding (FIG. 5B). The text has this: (§1) FIG. 5A, FIG. 5B, FIG. 5C, and FIG. 5D show[s] in vitro activities of the two N-glycosylated insulin analogues at the insulin and insulin-like growth factor (IGF-1) receptors.
Published studies have shown insulin to have a reduced interaction with IGF-1R when it contains a net negative charge at the end of the B-chain (Slieker et al., op. cit.). Therefore, we hypothesized that an N-glycosylated insulin analogue having sialic acid terminated-N-glycans would have reduced IGF-1R binding.

A short description of series [2]: Glucose levels during mouse ITT. It is filed as in vivo.
Series [3] addresses T1, insulin receptor (IR) (Homo sapiens, UniProt P06213). Briefly: In vitro insulin receptor binding (FIG. 5A).
From the text: as §1
(§2) N-glycans provide a means for modulating IR binding. […] The sialylated N-glycans extended the PK of the insulin relative to insulin analogues having non-sialylated N-glycans. However, the extended PK is balanced by the reduced binding at the IR. […] In light of the examples shown herein, modulating insulin-IR interactions can be accomplished by providing glycosylated insulin analogues in which one or more N-glycans have been added to the molecule by N-linked glycosylation in vivo or by attaching one or more of the N-glycans to the insulin molecule in vitro or a combination of both.

Series [4] in a line: Circulating insulin analogue levels during insulin tolerance test (ITT). The settings on record: FIG. 3A/3B.
The target in series [5] is T1, insulin receptor (IR). Description: In vitro insulin receptor phosphorylation / IR signaling assay (FIG. 5C). It is filed as cell-based.
From the text: as §1, §2

For series [6] the following is noted: mouse, in vivo.
Series [7] can be described thus: Glucose responsiveness in C57BL/6 mice with or without α-methylmannose. It is filed as in vivo. Here is the method: FIG. 40A, FIG. 40B, FIG. 40C, and FIG. 40D show in vivo activity of insulin B:P28N des(B30) analogues with an N-glycan attached to position B28. C57BL/6 mice at 12 weeks of age were fasted two hours before dosed with insulin des(B30) analogues with GS2.1 or GS5.0 N-glycan compositions by s.c injection. The effect on blood glucose was determined as a function of time in the absence and presence of α-methylmannose. FIG. 40A: vehicle; FIG. 40B: GS5.0; FIG. 40C: GS2.1; and FIG. 40D: summarizes the results.
To study the glucose responsiveness of the GS2.1 and GS5.0 insulin analogues, C57BL/6 mice at 12 weeks of age were fasted two hours before dosed with GS2.1 or GS5.0 by s.c injection. At the same time, animals received i.p. administration of α-methylmannose solution (21.5% w/v in saline, 10 ml/kg) or vehicle. […] Blood glucose was measured using a glucometer (OneTouch Ultra LifeScan; Milpitas, Calif.) at time 0 and then 30, 60, 90, and 120 minutes post injection. Glucose Area-Over-the-Curve (AOC) was calculated using values normalized to glucose of time 0 (as 100%).

“Also recorded” adds a separate entry of the source. Read-outs that look alike come from different tables or passages of the source.

On to “GS6.0: insulin heterodimer, native A-chain, des(B30) B:P28N B-chain, Asn28 attached to an A2 N-glycan (SEQ ID NO:294)”, for which the IGF-1R binding affinity entry in series [1] is given as “interacts with IGF-1R with even less affinity than NOVOLIN”. Besides, the “In vivo glucose-lowering activity” value in series [2] (FIG. 4, listed as sialic acid-terminated glycoform) was “retained activity at the insulin receptor; also recorded: longest glucose-lowering activity of all des(B30) samples”. The “In vitro IR binding” value in series [3] is “reduced binding activity to IR”. The “AUC of circulating insulin analogue levels” value in series [4] is recorded as “statistically significant improvements in AUC relative to mature NOVOLIN”; in series [4] (listed as sialic acid-terminated glycoform), “even greater AUC measurements relative to the galactose-terminated glycoform”. Also, the “In vitro IR signaling activity” value in series [5] is on record as “reduced activity”.
Take “GS5.0: insulin heterodimer, native A-chain, des(B30) B:P28N B-chain, Asn28 attached to a G2 N-glycan (SEQ ID NO:295)”: the “AUC of circulating insulin analogue levels” value in series [6] is recorded as “statistically significant improvements in AUC relative to mature NOVOLIN”. Also, the “In vivo glucose-lowering activity” value in series [2] (FIG. 4) is “retained activity at the insulin receptor”. In series [7] (AOC normalized to glucose at time 0), the “Percent glucose AOC in the presence and absence of α-methylmannose” value was “no change was detected”. For the same substance, the “Blood glucose lowering, dosed alone” value in series [7] (s.c., i.p. vehicle, 0-120 min, GS5.0 at 18 nmol/kg) is listed as “lowered glucose during 120 min study period”. The “Blood glucose lowering in the presence of α-methylmannose” value in series [7] (s.c., i.p. α-methylmannose 21.5% w/v, 10 ml/kg) is recorded as “no detectable additional effect on glucose lowering”.
